T1: EsCas13d, nuclease-dead (Eubacterium siraeum, UniProt B0MS50, R295A;H300A;R849A;H854A)
T1 sequence: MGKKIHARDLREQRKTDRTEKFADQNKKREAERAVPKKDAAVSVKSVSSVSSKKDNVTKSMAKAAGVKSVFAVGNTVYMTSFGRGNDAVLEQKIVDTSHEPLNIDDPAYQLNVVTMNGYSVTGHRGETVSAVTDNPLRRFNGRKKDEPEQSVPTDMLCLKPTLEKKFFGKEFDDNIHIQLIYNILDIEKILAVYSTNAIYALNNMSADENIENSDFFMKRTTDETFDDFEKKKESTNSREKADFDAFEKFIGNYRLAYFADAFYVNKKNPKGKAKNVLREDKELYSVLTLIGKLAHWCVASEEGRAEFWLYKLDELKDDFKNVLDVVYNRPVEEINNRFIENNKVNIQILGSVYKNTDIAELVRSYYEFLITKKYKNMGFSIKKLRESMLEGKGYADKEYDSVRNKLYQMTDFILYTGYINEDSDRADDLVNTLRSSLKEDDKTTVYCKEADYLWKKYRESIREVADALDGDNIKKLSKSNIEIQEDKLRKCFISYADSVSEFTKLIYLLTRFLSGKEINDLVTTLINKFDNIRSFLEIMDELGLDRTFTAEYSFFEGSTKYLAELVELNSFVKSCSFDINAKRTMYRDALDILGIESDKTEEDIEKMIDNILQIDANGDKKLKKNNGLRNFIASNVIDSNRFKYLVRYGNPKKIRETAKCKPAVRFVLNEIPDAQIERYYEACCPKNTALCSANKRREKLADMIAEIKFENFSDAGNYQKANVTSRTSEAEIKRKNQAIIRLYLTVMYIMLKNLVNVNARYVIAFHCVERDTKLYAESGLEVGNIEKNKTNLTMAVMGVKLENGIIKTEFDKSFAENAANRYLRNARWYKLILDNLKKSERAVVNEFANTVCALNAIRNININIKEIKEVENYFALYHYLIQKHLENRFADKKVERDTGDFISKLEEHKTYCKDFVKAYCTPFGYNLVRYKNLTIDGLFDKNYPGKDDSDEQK

B1: target 1 insA 3' of 17,insU 3' of 14 (mixed)
RNA 1: CACCCGUGCAAAAAUGCAGGGGUCUAAAACUGAGCGGAUAACCUCUCUAUGG
RNA 2: GGGAAUGGAUCCACAUCUACGAAUUCGUACCAUAGAAGAUGGUUAUCCGCUCACCGAGAUCGGAAGAGCACACGU
B2: target 1 G5C,G13C (mixed)
RNA 1: CACCCGUGCAAAAAUGCAGGGGUCUAAAACUGAGCGGAUAACCUCUCUAUGG
RNA 2: GGGAAUGGAUCCACAUCUACGAAUUCGUACCAUAGAGACGUUAUCCCCUCACCGAGAUCGGAAGAGCACACGU
B3: target 1 U10G,G12U (mixed)
RNA 1: CACCCGUGCAAAAAUGCAGGGGUCUAAAACUGAGCGGAUAACCUCUCUAUGG
RNA 2: GGGAAUGGAUCCACAUCUACGAAUUCGUACCAUAGAGAGUUGAUCCGCUCACCGAGAUCGGAAGAGCACACGU
B4: target 1 C2G,G15A (mixed)
RNA 1: CACCCGUGCAAAAAUGCAGGGGUCUAAAACUGAGCGGAUAACCUCUCUAUGG
RNA 2: GGGAAUGGAUCCACAUCUACGAAUUCGUACCAUAGAAAGGUUAUCCGCUGACCGAGAUCGGAAGAGCACACGU
B5: target 1 insU 3' of 6,insC 3' of 1 (mixed)
RNA 1: CACCCGUGCAAAAAUGCAGGGGUCUAAAACUGAGCGGAUAACCUCUCUAUGG
RNA 2: GGGAAUGGAUCCACAUCUACGAAUUCGUACCAUAGAGAGGUUAUCCUGCUCACCCGAGAUCGGAAGAGCACACGU
B6: target 1 insC 3' of 20,insA 3' of 4 (mixed)
RNA 1: CACCCGUGCAAAAAUGCAGGGGUCUAAAACUGAGCGGAUAACCUCUCUAUGG
RNA 2: GGGAAUGGAUCCACAUCUACGAAUUCGUACCACUAGAGAGGUUAUCCGCAUCACCGAGAUCGGAAGAGCACACGU
B7: target 1 insG 3' of 14,insG 3' of 10 (mixed)
RNA 1: CACCCGUGCAAAAAUGCAGGGGUCUAAAACUGAGCGGAUAACCUCUCUAUGG
RNA 2: GGGAAUGGAUCCACAUCUACGAAUUCGUACCAUAGAGAGGGUUGAUCCGCUCACCGAGAUCGGAAGAGCACACGU
B8: target 1 insG 3' of 20,insC 3' of 15 (mixed)
RNA 1: CACCCGUGCAAAAAUGCAGGGGUCUAAAACUGAGCGGAUAACCUCUCUAUGG
RNA 2: GGGAAUGGAUCCACAUCUACGAAUUCGUACCAGUAGAGCAGGUUAUCCGCUCACCGAGAUCGGAAGAGCACACGU
B9: target 1 del13,del19 (mixed)
RNA 1: CACCCGUGCAAAAAUGCAGGGGUCUAAAACUGAGCGGAUAACCUCUCUAUGG
RNA 2: GGGAAUGGAUCCACAUCUACGAAUUCGUACCAAGAGAGUUAUCCGCUCACCGAGAUCGGAAGAGCACACGU
B10: target 1 insG 3' of 8,insA 3' of 5 (mixed)
RNA 1: CACCCGUGCAAAAAUGCAGGGGUCUAAAACUGAGCGGAUAACCUCUCUAUGG
RNA 2: GGGAAUGGAUCCACAUCUACGAAUUCGUACCAUAGAGAGGUUAUGCCGACUCACCGAGAUCGGAAGAGCACACGU
B11: target 1 U11G,A20U (mixed)
RNA 1: CACCCGUGCAAAAAUGCAGGGGUCUAAAACUGAGCGGAUAACCUCUCUAUGG
RNA 2: GGGAAUGGAUCCACAUCUACGAAUUCGUACCUUAGAGAGGGUAUCCGCUCACCGAGAUCGGAAGAGCACACGU
B12: target 1 C4A,U8G (mixed)
RNA 1: CACCCGUGCAAAAAUGCAGGGGUCUAAAACUGAGCGGAUAACCUCUCUAUGG
RNA 2: GGGAAUGGAUCCACAUCUACGAAUUCGUACCAUAGAGAGGUUAGCCGAUCACCGAGAUCGGAAGAGCACACGU
B13: target 1 insU 3' of 6,insA 3' of 2 (mixed)
RNA 1: CACCCGUGCAAAAAUGCAGGGGUCUAAAACUGAGCGGAUAACCUCUCUAUGG
RNA 2: GGGAAUGGAUCCACAUCUACGAAUUCGUACCAUAGAGAGGUUAUCCUGCUCAACCGAGAUCGGAAGAGCACACGU
B14: target 1 insA 3' of 22,insG 3' of 6 (mixed)
RNA 1: CACCCGUGCAAAAAUGCAGGGGUCUAAAACUGAGCGGAUAACCUCUCUAUGG
RNA 2: GGGAAUGGAUCCACAUCUACGAAUUCGUACACAUAGAGAGGUUAUCCGGCUCACCGAGAUCGGAAGAGCACACGU
B15: target 1 G5C,U19A (mixed)
RNA 1: CACCCGUGCAAAAAUGCAGGGGUCUAAAACUGAGCGGAUAACCUCUCUAUGG
RNA 2: GGGAAUGGAUCCACAUCUACGAAUUCGUACCAAAGAGAGGUUAUCCCCUCACCGAGAUCGGAAGAGCACACGU
B16: target 1 insA 3' of 11,insG 3' of 11 (mixed)
RNA 1: CACCCGUGCAAAAAUGCAGGGGUCUAAAACUGAGCGGAUAACCUCUCUAUGG
RNA 2: GGGAAUGGAUCCACAUCUACGAAUUCGUACCAUAGAGAGGUAGUAUCCGCUCACCGAGAUCGGAAGAGCACACGU
B17: target 1 complement block 8-10 (mixed)
RNA 1: CACCCGUGCAAAAAUGCAGGGGUCUAAAACUGAGCGGAUAACCUCUCUAUGG
RNA 2: GGGAAUGGAUCCACAUCUACGAAUUCGUACCAUAGAGAGGUAUACCGCUCACCGAGAUCGGAAGAGCACACGU
B18: target 1 U3C,A9U (mixed)
RNA 1: CACCCGUGCAAAAAUGCAGGGGUCUAAAACUGAGCGGAUAACCUCUCUAUGG
RNA 2: GGGAAUGGAUCCACAUCUACGAAUUCGUACCAUAGAGAGGUUUUCCGCCCACCGAGAUCGGAAGAGCACACGU
B19: target 1 C2U,G13A (mixed)
RNA 1: CACCCGUGCAAAAAUGCAGGGGUCUAAAACUGAGCGGAUAACCUCUCUAUGG
RNA 2: GGGAAUGGAUCCACAUCUACGAAUUCGUACCAUAGAGAAGUUAUCCGCUUACCGAGAUCGGAAGAGCACACGU
B20: target 1 C6A,G15U (mixed)
RNA 1: CACCCGUGCAAAAAUGCAGGGGUCUAAAACUGAGCGGAUAACCUCUCUAUGG
RNA 2: GGGAAUGGAUCCACAUCUACGAAUUCGUACCAUAGAUAGGUUAUCAGCUCACCGAGAUCGGAAGAGCACACGU
B21: target 1 U8A,A14G (mixed)
RNA 1: CACCCGUGCAAAAAUGCAGGGGUCUAAAACUGAGCGGAUAACCUCUCUAUGG
RNA 2: GGGAAUGGAUCCACAUCUACGAAUUCGUACCAUAGAGGGGUUAACCGCUCACCGAGAUCGGAAGAGCACACGU
B22: target 1 insA 3' of 2,insU 3' of 2 (mixed)
RNA 1: CACCCGUGCAAAAAUGCAGGGGUCUAAAACUGAGCGGAUAACCUCUCUAUGG
RNA 2: GGGAAUGGAUCCACAUCUACGAAUUCGUACCAUAGAGAGGUUAUCCGCUCAUACCGAGAUCGGAAGAGCACACGU
B23: target 1 G12A,G15A (mixed)
RNA 1: CACCCGUGCAAAAAUGCAGGGGUCUAAAACUGAGCGGAUAACCUCUCUAUGG
RNA 2: GGGAAUGGAUCCACAUCUACGAAUUCGUACCAUAGAAAGAUUAUCCGCUCACCGAGAUCGGAAGAGCACACGU
B24: target 1 A9G,G12A (mixed)
RNA 1: CACCCGUGCAAAAAUGCAGGGGUCUAAAACUGAGCGGAUAACCUCUCUAUGG
RNA 2: GGGAAUGGAUCCACAUCUACGAAUUCGUACCAUAGAGAGAUUGUCCGCUCACCGAGAUCGGAAGAGCACACGU

target: T1, EsCas13d, nuclease-dead; assay: crRNA (strand 1, pre-loaded); Mg2+; 40 mM Tris-HCl pH 7.5, 150 mM NaCl, 6 mM MgCl2, 1 mM DTT, 0.1% Tween-20, 0.2 mg/ml BSA; 25 C; 10 min per concentration, then washed; details: tags: His6-TwinStrep-SUMO cleaved; N-terminal SNAP kept (SNAP-Surface 488); label: 3' end held by stalled T7 RNA polymerase

In order of rising Kd:
1. B19  5.7 ± 0.33 nM
2. B6  6.4 ± 0.4 nM
3. B24  6.8 ± 0.5 nM
4. B12  10.3 ± 0.7 nM
5. B10  11.5 ± 0.5 nM
6. B5  11.7 ± 0.8 nM
7. B22  12 ± 0.7 nM
8. B16  12.4 ± 0.4 nM
9. B13  12.8 ± 0.8 nM
10. B4  14.2 ± 1.5 nM
11. B7  16.7 ± 1 nM
12. B14  17.4 ± 1.6 nM
13. B3  20 ± 4 nM
14. B23  20 ± 2.3 nM
15. B20  27.5 ± 1.6 nM
16. B17  30.9 ± 2.1 nM
17. B21  31.1 ± 1.6 nM
18. B15  34.1 ± 3 nM
19. B2  41 ± 5 nM
20. B18  44 ± 6 nM
21. B1  62 ± 11 nM
22. B11  77 ± 24 nM
23. B9  80 ± 28 nM
24. B8  89 ± 33 nM
